Experimental data: US8465945B2, “Method for production and use of mite group 1 proteins” (Merck Patent GmbH, priority 1999, dated 2013)

What was measured:
[1] = tested on: IgE from mite-allergic or normal human sera; assay: ELISA, binding of IgE from human sera to coated Der f 1 proteins or mite extracts, detected with FcεR1α-biotin
[2] = tested on: IgE from mite-allergic dog sera; assay: ELISA, binding of IgE from dog sera to coated Der f 1 proteins or mite extracts, detected with FcεR1α-biotin
[3] = Cysteine protease activity, cleavage of quenched fluorogenic substrate; assay type: biochemical; settings: for Emission (w/o E-64): 50 μM substrate, 2 hours, excitation 380 nm, emission 460 nm; for Emission (w/E-64): pre-incubated 30 minutes with E-64 1 μg/ml
Method: Native Der f 1 is believed to be a cysteine protease, based on homology to papain; see, for example, Chua et al, 1992, J Exp Med 167, 175-182. The Der f 1 protein secreted as a mature form by recombinant cell P. pastoris HCY215 (i.e., P. pastoris strain X33 transformed with plasmid pBC128 containing nucleic acid molecule nDerf1909b (coding strand of SEQ ID NO:28) which encodes the pro-form of Der f 1 (amino acid sequence SEQ ID NO:29)) was tested for cysteine protease activity in the following manner. Three concentrations of protein were tested for their abilities to cleave an artificial substrate in the presence or absence of a cysteine protease inhibitor. Specifically, three pairs of samples containing 0.56 μg, 1.1 μg, or 5.6 μg of P. pastoris-expressed Der f 1 protein, respectively, were incubated for 30 minutes at room temperature in 20 μl of 50 mM Tris-HCl, pH 8. One member of each pair also contained the irreversible cysteine protease inhibitor E-64 at a concentration of 1 μg/ml. After the pre-incubation, 100 μl of 50 μM quenched fluorogenic substrate z-Val-Leu-Arg-AMC (available from Enzyme Systems Products, Livermore, Calif.) was added to all six samples, and the samples were incubated for 2 hours at room temperature. Fluorescence was measured using a Perkin Elmer Luminescence Spectrometer (model #LS50B) at an excitation wavelength of 380nm and an emission wavelength of 460 nm.

B1: PDerf1303b: Recombinant Der f 1 expressed by P. pastoris HCY215 from nDerf1909b (pro-form, SEQ ID NO:29); actually secreted as mature form (protein, listed as Dermatophagoides farinae)
chain: RPASIKTFEEFKKAFNKNYATVEEEEVARKNFLESLKYVEANKGAINHLSDLSLDEFKNRYLMSAEAFEQLKTQFDLNAETSACRINSVNVPSELDLRSLRTVTPIRMQGGCGSCWAFSGVAATESAYLAYRNTSLDLSEQELVDCASQHGCHGDTIPRGIEYIQQNGVVEERSYPYVAREQRCRRPNSQHYGISNYCQIYPPDVKQIREALTQTHTAIAVIIGIKDLRAFQHYDGRTIIQHDNGYQPNYHAVNIVGYGSTQGDDYWIVRNSWDTTWGDSGYGYFQAGNNLMMIEQYPYVVIM
[1]; Assay Number 1, serum human 1916
  OD, bound IgE: 11 OD multiplied by 1000
[1]; Assay Number 1, serum human3848
  OD, bound IgE: 1192 OD multiplied by 1000
[1]; Assay Number 1, serum human 3958
  OD, bound IgE: 2244 OD multiplied by 1000
[1]; Assay Number 1, serum human 3960
  OD, bound IgE: 646 OD multiplied by 1000
[1]; Assay Number 1, serum human 3961
  OD, bound IgE: 433 OD multiplied by 1000
[1]; Assay Number 1, serum human 3987
  OD, bound IgE: 1377 OD multiplied by 1000
[1]; Assay Number 1, serum human 4289
  OD, bound IgE: 182 OD multiplied by 1000
[1]; Assay Number 1, serum human 4467
  OD, bound IgE: 694 OD multiplied by 1000
[1]; Assay Number 1, serum human 5207
  OD, bound IgE: 2153 OD multiplied by 1000
[1]; Assay Number 1, serum human pool
  OD, bound IgE: 1547 OD multiplied by 1000
[1]; Assay Number 2, serum Heska human B
  OD, bound IgE: 2 OD multiplied by 1000
[1]; Assay Number 2, serum Heska human C
  OD, bound IgE: 4 OD multiplied by 1000
[1]; Assay Number 2, serum Heska human D
  OD, bound IgE: 0 OD multiplied by 1000
[1]; Assay Number 2, serum Heska human E
  OD, bound IgE: 1 OD multiplied by 1000
[1]; Assay Number 2, serum Heska human F
  OD, bound IgE: 0 OD multiplied by 1000
[1]; Assay Number 2, serum Heska human G
  OD, bound IgE: 0 OD multiplied by 1000
[1]; Assay Number 2, serum Heska human H
  OD, bound IgE: 0 OD multiplied by 1000
[1]; Assay Number 2, serum Heska human I
  OD, bound IgE: 4 OD multiplied by 1000
[1]; Assay Number 2, serum Heska human J
  OD, bound IgE: 0 OD multiplied by 1000
[1]; Assay Number 2, serum Heska human K
  OD, bound IgE: 0 OD multiplied by 1000
[1]; Assay Number 2, serum Heska human L
  OD, bound IgE: 0 OD multiplied by 1000
[1]; Assay Number 2, serum Heska human M
  OD, bound IgE: 0 OD multiplied by 1000
[1]; Assay Number 2, serum Heska human N
  OD, bound IgE: 370 OD multiplied by 1000
[1]; Assay Number 2, serum Heska human O
  OD, bound IgE: 0 OD multiplied by 1000
[1]; Assay Number 2, serum Heska human P
  OD, bound IgE: 0 OD multiplied by 1000
[1]; Assay Number 2, serum Heska human Q
  OD, bound IgE: 0 OD multiplied by 1000
[1]; Assay Number 2, serum Heska human R
  OD, bound IgE: 0 OD multiplied by 1000
[1]; Assay Number 2, serum human 1916
  OD, bound IgE: 15 OD multiplied by 1000
[1]; Assay Number 2, serum human 3848
  OD, bound IgE: 904 OD multiplied by 1000
[1]; Assay Number 2, serum human 3958
  OD, bound IgE: 2369 OD multiplied by 1000
[1]; Assay Number 2, serum human 3960
  OD, bound IgE: 1046 OD multiplied by 1000
[1]; Assay Number 2, serum human 3961
  OD, bound IgE: 709 OD multiplied by 1000
[1]; Assay Number 2, serum human 3987
  OD, bound IgE: 2457 OD multiplied by 1000
[1]; Assay Number 2, serum human 4289
  OD, bound IgE: 160 OD multiplied by 1000
[1]; Assay Number 2, serum human 4467
  OD, bound IgE: 660 OD multiplied by 1000
[1]; Assay Number 2, serum human 5207
  OD, bound IgE: 1304 OD multiplied by 1000
[1]; Assay Number 2, serum human pool
  OD, bound IgE: 1551 OD multiplied by 1000
[1]; Table 1, 9 human samples (8 sera and pool), OD numbers greater than 100 positive
  reactivity: share of human serum samples reactive to native Der f 1 proteins that are also reactive to the recombinant protein: 100%
[1]; Table 2, 10 human serum samples
  reactivity: share of human serum samples reactive to native Der f 1 proteins that are also reactive to the recombinant protein: 100%
[1]; Table 3, sera 429, PDerf1303b preparation number A166-26, PDerf1223b preparation 1000-7
  OD, bound IgE: 104 OD multiplied by 1000
[1]; Table 3, sera 1916, PDerf1303b preparation number A166-26, PDerf1223b preparation 1000-7
  OD, bound IgE: 0 OD multiplied by 1000
[1]; Table 3, sera 3848, PDerf1303b preparation number A166-26, PDerf1223b preparation 1000-7
  OD, bound IgE: 457 OD multiplied by 1000
[1]; Table 3, sera 3958, PDerf1303b preparation number A166-26, PDerf1223b preparation 1000-7
  OD, bound IgE: 2616 OD multiplied by 1000
[1]; Table 3, sera 3960, PDerf1303b preparation number A166-26, PDerf1223b preparation 1000-7
  OD, bound IgE: 1420 OD multiplied by 1000
[1]; Table 3, sera 3961, PDerf1303b preparation number A166-26, PDerf1223b preparation 1000-7
  OD, bound IgE: 744 OD multiplied by 1000
[1]; Table 3, sera 3987, PDerf1303b preparation number A166-26, PDerf1223b preparation 1000-7
  OD, bound IgE: 2588 OD multiplied by 1000
[1]; Table 3, sera 4467, PDerf1303b preparation number A166-26, PDerf1223b preparation 1000-7
  OD, bound IgE: 780 OD multiplied by 1000
[1]; Table 3, sera 5207, PDerf1303b preparation number A166-26, PDerf1223b preparation 1000-7
  OD, bound IgE: 1887 OD multiplied by 1000
[1]; Table 3, sera human pool, PDerf1303b preparation number A166-26, PDerf1223b preparation 1000-7
  OD, bound IgE: 1226 OD multiplied by 1000
[1]; Table 6, pool of sera from 16 mite-allergic human patients, 6.2 ng protein per well
  OD, bound IgE: 53 OD
[1]; Table 6, pool of sera from 16 mite-allergic human patients, 12.5 ng protein per well
  OD, bound IgE: 178 OD
[1]; Table 6, pool of sera from 16 mite-allergic human patients, 25 ng protein per well
  OD, bound IgE: 240 OD
[1]; Table 6, pool of sera from 16 mite-allergic human patients, 50 ng protein per well
  OD, bound IgE: 293 OD
[1]; Table 6, pool of sera from 16 mite-allergic human patients, 100 ng protein per well
  OD, bound IgE: 354 OD
[1]; Table 6, pool of sera from 16 mite-allergic human patients, 200 ng protein per well
  OD, bound IgE: 484 OD
[2]; Assay Number 1, serum dog pool
  OD, bound IgE: 364 OD multiplied by 1000
[2]; Assay Number 1, serum dog-1
  OD, bound IgE: 21 OD multiplied by 1000
[2]; Assay Number 1, serum dog-2
  OD, bound IgE: 1490 OD multiplied by 1000
[2]; Assay Number 1, serum dog-3
  OD, bound IgE: 2499 OD multiplied by 1000
[2]; Assay Number 2, dog sera pool A 146
  OD, bound IgE: 199 OD multiplied by 1000
[2]; Assay Number 2, dog sera pool KS338
  OD, bound IgE: 27 OD multiplied by 1000
[2]; Table 1, 3 dog serum samples
  reactivity: share of dog serum samples reactive to native Der f 1 proteins that are also reactive to the recombinant protein: 100%
[3]; 0.56 micrograms rDer f 1
  Emission (w/o E-64): 0.861
  Emission (w/E-64): 0.302
[3]; 1.1 micrograms rDer f 1
  Emission (w/o E-64): 1.693
  Emission (w/E-64): 0.765
[3]; 5.6 micrograms rDer f 1
  Emission (w/o E-64): 9.671
  Emission (w/E-64): 2.369
[3]; can be inhibited by pre-incubation with E-64
  cysteine protease activity: exhibits cysteine protease activity
